Source: a protein production outcome set (Wang et al. 2014)

Experiment: label from the status in PepcDB records
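Further: failed if final PepcDB status was selected cloned or expressed and not failed if soluble or beyond.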

MAQTQGTRRKVCYYYDGDVGNYYYGQGHPMKPHRIRMTHNLLLNYGLYRKMEIYRPHKANAEEMTKYHSDDYIKFLRSIRPDNMSEYSKQMQRFNVGEDCPVFDGLFEFCQLSTGGSVASAVKLNKQQTDIAVNWAGGLHHAKKSEASGFCYVNDIVLAILELLKYHQRVLYIDIDIHHGDGVEEAFYTTDRVMTVSFHKYGEYFPGTGDLRDIGAGKGKYYAVNYPLRDGIDDESYEAIFKPVMSKVMEMFQPSAVVLQCGSDSLSGDRLGCFNLTIKGHAKCVEFVKSFNLPMLMLGGGGYTIRNVARCWTYETAVALDTEIPNELPYNDYFEYFGPDFKLHISPSNMTNQNTNEYLEKIKQRLFENLRMLPH
protein production: failed

VDICNHALLVGYGRVGSLLGEKLLASDIPLVVIETSRTRVDELRERGVRAVLGNAANEEIMQLAHLECAKWLILTIPNGYEAGEIVASARAKNPDIEIIARAHYDDEVAYITERGANQVVMGEREIARTMLELLETPPAGEVVTR
protein production: not failed

AIADELNSPLGERAQGASLAHVVWSDPQWLERYPLTFENVLTYFSRSPFYDPTCNNELVRMQMHPELQGEMLYYTQREEELLLGMQGVEYVPLCSSDAHELFIIRKQVRRSADEVHVTNLYYILYGQVYEAPAFSTVLLVRLRQSADFLVRSLGLLRQWLSKKEYGEPGATGHGHEDTLLLQLLRKAQQRNRQL
protein production: failed

MMNETLKVIAERYSCRDFKNEMPSDELLQAIAEAAIQAPSGMNRQAWRVIVVKNKELMQEMEAEGLAYLAGMEDQSSYNRIMERGGRLFYGAPCMIVVPIDPTQYGPALVDCGILCQTIALAATSLGIANIMCGYTGLAFASGLRAEEFSKRLGFPEGYAFGCSVLLGHANTTKPPHVPDKDKITYVE
protein production: not failed

MGVARPNFFIVGAAKCGTSSLDRYLSQHPDIYIPPKKEAHFFSIPDFPERFTGPGDEGMNLYTIRDEDAYMRLFDGVRGERAVGEASVFYLFYPGTAQRMYDAYPDAKILIMLRNPVDRAFSAYMHLVRDERETLSFRESLAKEEERIRQHYEPLWYYRAVGLYAAQVKRYLDVFGREQVKVILFEEFARDPVQVVRDCCAFLGVSTDFVPDTSIRHNESGVPKSRSLYNFIAKPNALKEIVKPFIPAAVRERLGNRAKSMVLGRMEMEPDLREELTAFFAPDVARLEALIHRDLSAWRRPARAAGSQ
protein production: not failed

YYFKEYHLPYPKGVIFSGNIPPCFYHKSDPPLHLLPDKIFLEEVSKLGGIPGKIIKEKQFVEYFVPIIKNDFKLIENYYFQQKQEKFPVKSLICSGKDDKFRVKDLVQWENYFIDKCSISLFKGGHFYIDDNIASLCNQIKDFIY
protein production: failed

MQVELIIKNLKVYNSYFKKFIKSDVLINEGKFLHIGKGYEDRLWSENIIDGEDKYIIPGLIDIHMHIESSMTIPREFSKAAIKHGVTTVVADPHEIANVFGVRGIEEFIKFKGNLDIFYGILEHHHHHH
protein production: failed

MSNDKTPNSPESTPSTPADEVLDGLLAELSPEASAEPNPADDSGNPFTTIFKSVTDKATELGSAATEGLSNLQESATELAAETKEKFGNFAEAHKDDLGQLLTSAQGKAASFGEAVSDRFGELGESATESFGNLQEGAAGFAAGAKEKFGDFAEASQEKLSEIAETTQDKAASFGEAVSDRVEGLRGSAAEKLGNLQEGASELAAGAKEKFGDFAEASQEKLSEIVETTQGKAASFGEAVSDRVEGLRGSAAEKLGNLQEGASELAAGAKEKFGDFAEASQEKLSEIVETTQGKAASFGEAVSDRFGELGESAAEKLSNLQEDASEFAASAQEKLSTFTNARQEELGNLTKSAQSDVQDTANTVSEQLEQAPEAVSTAADSLKGAQEKLEAAVVASQSVAEKLKPAEVQSQSSLQLASESPSPSFFGRLLRKIKGFFRKLFG
protein production: failed

MRRLLVALCLLTVVLGSTSALAQARNQLGPLCTTETTPADKMVDACTKIIALKVFKGEQLATVYFWRAVGWNKKGDYAKVITDATEAIRLQPSQAVYNLRGSAYYDKGDYDIAIADFDDALKLGPPSGIIFHNRGNAWRGKHDYTKAIADYDMSIKADPKSAFSFQNRGISKEALGDLDGALADINQAIRLDPTLPQPLINRTSIWRAKGDLDRAIADGSEAIRLAEKKPPANIMTPPNSVLISGYTHRALAYEAKGDYARARDDYKATLAIVASDAGSKANQATAKVRLSLVSDAAVPIPRDAPSPTTQPTAAPAPQQTGAASAPSPAPAVRGTRMALIIGNGAYAHVKALPNPPNDARAVAKSLRDIGFTVSEGVDLDRAAMQKMTRDFLRDAARAQVAVVYYAGHGVQVDGRNYLIPVDVELKPGTAMTEAMIDMDTIMAGLDDQVRTNILIFDACRNNPMAQQVASAAANRGIEGASGLAAPTSLGAGATLGAGTLIAFATAPGQVALDGDGANSPFSAALSRHIGTLGLEVQQMLTRVRAEVVSTTKNKQVPWSNSSLLGEVYLAEK
protein production: failed

MNTSCTSYHSMALSESQRDILGMIATNHQLHDILTAICLMIDAQDPGTLCSILLTDAQGKHLLKGAAPGLPPAYSDAIHGLPIGPQEGTCGTAAFRRELVVTADIARDPSWERFRSLALGYNLRSCWSLPLLSHEGSVLGTFALYQDQAIAPSEVQIHRLTCAAQLAAIAIRH
protein production: failed

MEEINKYIQNSSETGGEIYNLIEELFPICRSITGNGVRKTMDIIRKHIPLEIHEVKSGTKVFDWTVPKEWNIKDAYVRNSKGEKVIDFKENNLHVMSYSVPVHKTMTLDELKPYLHTIPGNKDRIPYLTSYYKENWGFSLTQNKFDELCDDDYEVVIDSSLEDGSLTYGEYYIRGELEEEILLTTYTCHPSMCNDNLSGVALITFIAKALSKLKTKYSYRFLFAPETIGSITWLSRNEDKLKNIKMGLVATCVGDAGIKNYKRTKFGDAEIDKIVEKVLMHCGSEYYVADFFPWGSDERQFSSPGINLSVGSLMRSCYGFDGYHTSADNLCYMNKDGLADSYKTYLEVIYTIENNRTYLNLNPKCEPQLGKRGIYRMIGGGSDYPFDEFAMFWVLNMSDGKNSLLDIAYKSGMEFRRIKYAADALYRVELLKLV
protein production: not failed

MAAVWQQVLAVDARYNAYRTPTFPQFRTQYIRRRSQLLRENAKAGHPPALRRQYLRLRGQLLGQRYGPLSEPGSARAYSNSIVRSSRTTLDRMEDFEDDPRALGARGHRRSVSRGSYQLQAQMNRAVYEDRPPGSVVPTSAAEASRAMAGDTSLSENYAFAGMYHVFDQHVDEAVPRVRFANDDRHRLACCSLDGSISLCQLVPAPPTVLRVLRGHTRGVSDFAWSLSNDILVSTSLDATMRIWASEDGRCIREIPDPDSAELLCCTFQPVNNNLTVVGNAKHNVHVMNISTGKKVKGGSSKLTGRVLALSFDAPGRLLWAGDDRGSVFSFLFDMATGKLTKAKRLVVHEGSPVTSISARSWVSREARDPSLLINACLNKLLLYRVVDNEGTLQLKRSFPIEQSSHPVRSIFCPLMSFRQGACVVTGSEDMCVHFFDVERAAKAAVNKLQGHSAPVLDVSFNCDESLLASSDASGMVIVWRREQK
protein production: failed

MLGGVIVVKKAIAALGIGAVAVSVSSINASALEKGTVTASALNIRSGPSSDCDKVAKLYKGKTVEILEKSNGWYKVRVSSSVVGWGSAKYISTSGSSEGTSSQNNSTSSGTTISGNGKVNVSSRLNVRSGAGTNYSLVGKANNGDVVKLLEQSNGWYKIKLSNGVTGWASSQYISKTSEDVGTNNSSNSNSTNNSDKKPSSEESIEGKNGKVTSAVSLNVRSGPGTSYSIIGKLNGGDVVELKAKSNGWYKVKLSSGTIGWVSASYISETNEDTKEKPNSSSNQNSQSNSNSKPSFTGNSDKSTAKGSTIVDFAYTLIGIPYQWGASGPDKFDCSGFTQYVFKHSVGVSIPRVSREQANFGSAISMGNYAPGDLVYFDTDGDGTTNHVGIYVGNSKFIHCSGTQTNPNKVKVDNLTSSYWSKVLLGARRFV
protein production: failed

MGQSLPLLIRLIVVIWLTISMVTACPRAPTHLNHGRRTRGDNGYKLIVADGPNGYVPGKTYNLLLLGSRTHLKVQHFTHFTITAEAHTGARRPQAASPRRVGRFQLFSDSLTQFNDRCVNTVSEADDLPKTEVQVMWVAPESGSGCVSLSAMVYEGPRAWFADDGNLSTVICERKPDAAAAQKECCACDEAKYSFVFEGIWSNETHPKDYPFAIWLTHFSDVIGASHESNFSFWGENHIATAGFRSLAEWGSPAALETELRANGPKLRTLIKAAGLWYPNVNQNTSSKFRVDRKHPKVSLVSMFGPSPDWVVGISGLDLCTEDCSWKESMDFDLFPWDAGTDSGISYMSPNSETQPPERMYRITTMYPEDPRAPFYNPKSREMTPLAKLYLRREKIVSRNCDDEFLQALQLEVSDDAEEQDTRAECRVGDYSAWSPCSVSCGKGIRMRSRQYLYPAAADQNKCARQLVAKEMCVAAIPECADGPAQSKDRDDDEGENLANSQSLVGSNGEGAGLCKTSPWSVWSECSASCGIGITMRTRTFVNHLGRKRCPHITIVEKNKCMRPDCTYEQVELPDPQCPTSQWSDWSPCSSTCGRGVTIRTRLLLLENGPDKESCTQRMELHQQKECVNPIDCHINAEQAKDICVQAPDPGPCRGTYMRYAYDPQNQHCYSFTYGGCRGNRNNFLTENDCLNTCNVLRSPYSSRVDQPRACVLSDWSVWSPCSVSCGVGVSESRRYVVTEPQNGGQPCSKRLVKSRSCAMPAC
protein production: failed

MGVLTTFISQKALVGGYDNTIEPGVVILSGATITCNVSIGQGTFINKSTVISHDVRIGRYCEVSPGAKVLGRAIIGDRTEIGANAVILPDVIVGADCKIGAGAVVTRNIDSHTTVAGVPARSITKSSNNAFKLKSKIRNLLYHIRIADFRKLREYNHYVFGLEHHHHHH
protein production: failed

MSVNDTGHSDNYTWNRQVYHRLKLALSLGLRRQLFLAVCDDLHLRNQVAARLHSTLAYPVGQVLYQSLDGKEASTSAYPRLVTLRLNLNEPNPIAQINQWLANYPPPIVGASKDNPGKPLPIPTFQLVGVEQLTKQTVASQRLFLHYLRLSEQFFAAQESSRFLESSVLLWVSRPWLSAIQQSAPQFWRWRTGVFVFAGEPTPTTQNSGHPERFSNSRSVKLGNLEQSALDELSMEGEVRSPSTTEFNFGDEVSLPTEILGNHPQPKEETPPLISELPPTQQKPQELTVRSSAANSSSLLSLSHVSQELTDLVLATINTKISSEAEDDWQPQELLLEIEELHSQSASGEILAAAYHQLGNLYRLRIEQGQSTLEDLMVAIIAYQESISYDENSPQLPDILNDLGTLYWMLYRTPPNLEEGQTYIEQGIEFYELALKIISPETHPDTYARVHNNLGTAYGDLARFASPAENWQQAVVSYSKALLHRTVESDPLKYAACQNNLGTAYWHLAQYNQPVVHLKKAIASYKQSLAHYNPQDEPLKYGMIQNNVGTAYWNLAQYEQPGENLQLAIDVYSEALKYRTAAMVPNACAATQNNLGTAYWHLANLPQTTKDVRQKLLILCINAYEEAIALAHSLSNVSLSFDLFATHNNLGLAHYQLVTDNYFSGDKGRRSHHLEAALDNHLQALNGLSKQPEAYQATFAYVVKTVRAFHNELGIQGQNLALSKVPGHLLPEILPKL
protein production: failed

STQYMELNQRDEKSPFRNANLRKAISYSIDRKALVESILGDGSIEPNGLVPADMAKDPSGGKDFAKEAGSQIEYDTKKAKEYWEKAKKELGISTLTMDILSSDADSSKKTVEFVQGSIQDALDGVKVTVSPVPFSVRLDRSNKGDFDAVIGGWSADYADPSSFLDLFASDNSYNRGRYNNAEFDKFVKAASSADATDPEKRWDDMLNAEKTIMGDMGVVPLFQKS
protein production: not failed
